Measured values: patent US11820827B2, “Methods of treating myelodysplastic syndrome and acute myeloid leukemia with nonfucosylated anti-CD70 antibodies” (Seagen Inc., priority 2019, dated 2023)

What was measured:
[1] = system: FcγRIIIa (F/F low affinity and V/V high affinity alleles); assay: BLI binding affinity to FcγRIIIa (low and high affinity alleles); design: species or system human; details: compared with SGN-70
Source text: Parameters are listed Table 1. Biotinylated avi-tagged human FcγR-monomeric Fc N297A LALA-PG and Fc receptor neonatal (FcRN) monomeric Fc N297A IHH fusion proteins (designed and expressed at Seattle Genetics) were loaded onto high precision streptavidin biosensors (ForteBio) to responses between 0.3 to 1 nm following a 100 second sensor check in Buffer A (0.1% bovine serum albumin [BSA], 0.02% Tween20, 1× phosphate-buffered saline [PBS] pH 7.4). After another baseline measurement, titrated antibodies were associated for 600, 10, 100, 50, and 10 seconds and dissociated for 1000, 50, 100, 500, and 50 seconds in Buffer B (1% casein, 0.2% Tween20, 1×PBS pH 7.4) for FcγRI, IIa, IIIa, FcRN pH 6, and FcRN pH 7.4, respectively. Prior to analysis, the references were subtracted in each assay. All the sensorgrams were processed with a Y-axis alignment at the start of association and an inter-step dissociation correction. A 1:1 Langmuir isotherm global fit model was used to fit the curves.

[2] = system: MOLM-13 CD70+ AML cell line; assay: ADCC assay with NK effector cells, MOLM-13; type: cell-based, human; details: effector-to-target ratio 10:1, 4 h
Experimental: (§1) ADCC activity was evaluated using two CD70+AML cell lines as an ADCC target (FIGS. 3A and 3B). The AML cell lines, MOLM-13 (FIG. 3A) and NOMO-1 (FIG. 3B), were labeled and mixed with titrations of test antibodies or isotype control. Effector cells were isolated from cryopreserved normal donor PBMC using the EasySep Human NK Cell Enrichment Kit (Stem Cell Technologies). Effector cells were added at an effector-to-target cell ratio of 10:1 with […]. After a 4-h incubation, the percent specific cell lysis was calculated.
(§2) AML cell lines were grown in appropriate growth medium while incubating at 37° C. in 5% CO2. Suspended cells were counted using ViCell XR cell counter. The required volume of cells was mixed with fresh growth medium and plated at seeding densities of 0.5 M/mL.
(§3) The following protocol was used to assess ADCC activity: • 1. Two vials of huPBMCs were thawed in the 37° C. waterbath and resuspended in 1% FBS-RPMI media. Cells were spun down and then NK cells were isolated using the EasySep human NK cell enrichment kit following the manufacturer's protocol. • 2. […] Absorbance per well was measured using the SpectraMax 190 plate reader at 490 nm and the acquired values were converted to text file and exported to Excel and into GraphPad Prism for further data analysis. • 9. […]

[3] = system: NOMO-1 CD70+ AML cell line; assay: ADCC assay with NK effector cells, NOMO-1; type: cell-based, human; details: effector-to-target ratio 10:1, 4 h
Experimental: as §1, §2, §3

[4] = system: NOMO-1 CD70+ target cells; assay: ADCP with monocyte-derived macrophages, NOMO-1; type: cell-based, human; details: flow cytometry, antibody dose-dependent
Experimental: Phagocytosis of fluorescently labeled target cells was determined by flow cytometry. Phagocytosis was measured for the appearance of double-labeled coincident events (fluorescent target cells) and anti-CD11c positivity to identify monocyte/macrophages.
The following protocol was used to assess […] activity on AML cell lines: • 1. Target cells were labeled using the PKH26 Red Fluorescent Cell Linker Mini Kit (Sigma Aldrich) and following the manufacturer's instructions. • 2. Cells (4000 cells/well) were incubated with the indicated test articles for 30 minutes, washed and resuspended in RPMI plus 10% ultra-low IgG FBS. • 3. PBMC-derived macrophages (100,000 cells/well), generated by incubating PBMC-derived monocytes with 500 U/mL (50 ng/mL) GM-CSF for 10-12 days, were added to the target cells and incubated at 37° C. for 2 hours. • 4. Plates were centrifuged and cells resuspended in 100 μl of APC-CD11 antibody (macrophage marker) and incubated on ice for 30 minutes. • 5. Cells were washed, resuspended in PBS and analyzed by flow cytometry to determine the percentage of phagocytosis

MV4-11 AML xenograft [5] = assay: Tumor growth in the MV4-11 AML xenograft model, SEA-CD70 and azacitidine (Example 10); type: in vivo, SCID mice
MV4-11 AML xenograft [6] = assay: Tumor growth in the MV4-11 AML xenograft model, SEA-CD70, azacitidine, venetoclax (Example 11); type: in vivo, SCID mice; details: antibody 10 mg/kg Q4dx5, azacitidine 2 mg/kg Q1dx5 3 cycles, venetoclax 25 mg/kg oral Q1dx21; comparisons at day 39
Source text: Tumor growth was reported as a volume and calculated as an average across animals within each treatment group (FIG. 11A). Immunocompromised SCID mice were implanted with 5×10e6 MV4-11 cells subcutaneously in the flank on day 0. When mean tumor size of 50 mm^3 (measured by using the formula: Volume (mm^3)=0.5*Length*Width^2, where the length is the longer dimension) was reached, mice were randomized into treatment groups of 10 mice per group. Stock concentrations of antibody and chemotherapy were diluted to the appropriate concentration and injected into animals at 10 μl/g of body weight. Tumor length and width, and animal weight were measured two times weekly throughout the study and tumor volume was calculated using the formula above. Animals were followed until tumor volume measured ˜1000 mm^3, at which time the animals were euthanized. Animals were dosed on various schedules based on treatment received; animals receiving antibody were treated with 10 mg/kg of antibody (Q4dx5), azacitidine-treated animals were dosed daily (2 mg/kg) for five consecutive days (Q1dx5) each week, for a total of 3 cycles (3 weeks); venetoclax was given at 25 mg/kg every day by oral gavage for 21 days consecutively (Q1dx21). Animal receiving combination of treatments received each treatment at the same dose and schedule as the single treatments.

B1: SEA-CD70: humanized, nonfucosylated monoclonal IgG1 antibody targeting CD70 (nonfucosylated h1F6) (antibody, chains of the INN, looked up, V domains shown)
VH: QVQLVQSGAEVKKPGASVKVSCKASGYTFTNYGMNWVRQAPGQGLKWMGWINTYTGEPTYADAFKGRVTMTRDTSISTAYMELSRLRSDDTAVYYCARDYGDYGMDYWGQGTTVTVSS
VL: DIVMTQSPDSLAVSLGERATINCRASKSVSTSGYSFMHWYQQKPGQPPKLLIYLASNLESGVPDRFSGSGSGTDFTLTISSLQAEDVAVYYCQHSREVPWTFGQGTKVEIK
modifications: nonfucosylated
[1]
  binding affinity to FcγRIIIA: much higher binding affinity
[2]
  lysis of target cells in ADCC assay: induced lysis of two CD70 positive AML cell lines in a dose-dependent fashion
[3]
  lysis of target cells in ADCC assay: induced lysis of two CD70 positive AML cell lines in a dose-dependent fashion
[4]
  phagocytosis of antibody-coated target cells by macrophages: readily phagocytosed target cells
MV4-11 AML xenograft [5]; antibody 10 mg/kg Q4dx5, azacitidine 2 mg/kg Q1dx5 for 3 cycles
  effect on tumor growth: reduce tumor growth
MV4-11 AML xenograft [5]; from time to 10× fold change compared to untreated control
  delay in tumor growth: 31%
MV4-11 AML xenograft [6]
  effect on tumor growth: delay tumor growth
